Test results from IntAct's records for PubMed 19379695.

B1: E3 ubiquitin-protein ligase SMURF2 (Mus musculus), A2A5Z6 (parent)
chain: MSNPGGRRNGPVKLRLTVLCAKNLVKKDFFRLPDPFAKVVVDGSGQCHSTDTVKNTLDPKWNQHYDLYIGKSDSVTISVWNHKKIHKKQGAGFLGCVRLLSNAINRLKDTGYQRLDLCKLGPNDNDTVRGQIVVSLQSRDRIGTGGQVVDCSRLFDNDLPDGWEERRTASGRIQYLNHITRTTQWERPTRPASEYSSPGRPLSCFVDENTPITGTNGATCGHSSDPRLAERRVRSQRHRNYMSRTHLHTPPDLPEGYEQRTTQQGQVYFLHTQTGVSTWHDPRVPRDLSNINCEELGPLPPGWEIRNTATGRVYFVDHNNRTTQFTDPRLSANLHLVLNRQNQLKDQQQQQVVPLCPDDTECLTVPRYKRDLVQKLKILRQELSQQQPQAGHCRIEVSREEIFEESYRQVMKMRPKDLWKRLMIKFRGEEGLDYGGVAREWLYLLSHEMLNPYYGLFQYSRDDIYTLQINPDSAVNPEHLSYFHFVGRIMGMAVFHGHYIDGGFTLPFYKQLLGKSITLDDMELVDPDLHNSLVWILENDITGVLDHTFCVEHNAYGEIIQHELKPNGKSIPVTEENKKEYVRLYVNWRFLRGIEAQFLALQKGFNEVIPQHLLKTFDEKELELIICGLGKIDVSDWKVNTRLKHCTPDSNVVKWFWKAVEFFDEERRARLLQFVTGSSRVPLQGFKALQGAAGPRLFTIHQIDACTNNLPKAHTCFNRIDIPPYESYEKLYEKLLTAIEETCGFAVE
partner: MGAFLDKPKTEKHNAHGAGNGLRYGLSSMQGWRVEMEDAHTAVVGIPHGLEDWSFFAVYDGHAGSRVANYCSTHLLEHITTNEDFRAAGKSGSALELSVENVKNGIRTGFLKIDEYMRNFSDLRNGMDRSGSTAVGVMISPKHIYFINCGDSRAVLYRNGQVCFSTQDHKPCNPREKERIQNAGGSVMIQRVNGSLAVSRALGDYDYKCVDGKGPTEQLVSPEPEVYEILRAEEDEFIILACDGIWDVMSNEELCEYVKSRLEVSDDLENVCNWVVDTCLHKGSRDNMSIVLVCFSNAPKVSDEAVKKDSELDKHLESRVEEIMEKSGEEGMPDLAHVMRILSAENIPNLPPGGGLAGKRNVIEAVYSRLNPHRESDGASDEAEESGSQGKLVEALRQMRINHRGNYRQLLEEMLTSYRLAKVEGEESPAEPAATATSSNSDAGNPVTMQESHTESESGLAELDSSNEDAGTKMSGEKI
B2: E3 ubiquitin-protein ligase SMURF2 (Mus musculus), A2A5Z6 (parent)
chain: B1 chain
B3: E3 ubiquitin-protein ligase SMURF2 (Mus musculus), A2A5Z6 (parent)
chain: B1 chain
partner: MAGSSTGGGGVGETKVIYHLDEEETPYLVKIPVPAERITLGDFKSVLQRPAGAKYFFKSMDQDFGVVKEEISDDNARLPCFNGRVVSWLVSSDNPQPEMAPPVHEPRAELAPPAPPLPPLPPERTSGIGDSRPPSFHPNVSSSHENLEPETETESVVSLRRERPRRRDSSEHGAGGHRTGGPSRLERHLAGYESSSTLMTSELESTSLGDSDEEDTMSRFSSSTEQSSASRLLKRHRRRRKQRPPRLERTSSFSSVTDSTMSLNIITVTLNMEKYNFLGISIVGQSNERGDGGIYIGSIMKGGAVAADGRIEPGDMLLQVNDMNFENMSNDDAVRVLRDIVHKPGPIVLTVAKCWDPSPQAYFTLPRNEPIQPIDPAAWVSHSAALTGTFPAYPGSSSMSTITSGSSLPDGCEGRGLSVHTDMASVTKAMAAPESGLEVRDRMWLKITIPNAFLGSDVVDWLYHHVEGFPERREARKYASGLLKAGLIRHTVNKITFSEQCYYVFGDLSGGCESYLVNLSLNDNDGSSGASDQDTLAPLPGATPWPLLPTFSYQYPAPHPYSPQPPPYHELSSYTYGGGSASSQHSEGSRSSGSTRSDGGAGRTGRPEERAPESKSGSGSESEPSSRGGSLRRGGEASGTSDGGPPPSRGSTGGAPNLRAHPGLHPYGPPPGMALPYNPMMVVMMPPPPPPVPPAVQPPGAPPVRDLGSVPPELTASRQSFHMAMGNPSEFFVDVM
B4: E3 ubiquitin-protein ligase SMURF2 (Mus musculus), A2A5Z6 (parent)
chain: B1 chain
partner: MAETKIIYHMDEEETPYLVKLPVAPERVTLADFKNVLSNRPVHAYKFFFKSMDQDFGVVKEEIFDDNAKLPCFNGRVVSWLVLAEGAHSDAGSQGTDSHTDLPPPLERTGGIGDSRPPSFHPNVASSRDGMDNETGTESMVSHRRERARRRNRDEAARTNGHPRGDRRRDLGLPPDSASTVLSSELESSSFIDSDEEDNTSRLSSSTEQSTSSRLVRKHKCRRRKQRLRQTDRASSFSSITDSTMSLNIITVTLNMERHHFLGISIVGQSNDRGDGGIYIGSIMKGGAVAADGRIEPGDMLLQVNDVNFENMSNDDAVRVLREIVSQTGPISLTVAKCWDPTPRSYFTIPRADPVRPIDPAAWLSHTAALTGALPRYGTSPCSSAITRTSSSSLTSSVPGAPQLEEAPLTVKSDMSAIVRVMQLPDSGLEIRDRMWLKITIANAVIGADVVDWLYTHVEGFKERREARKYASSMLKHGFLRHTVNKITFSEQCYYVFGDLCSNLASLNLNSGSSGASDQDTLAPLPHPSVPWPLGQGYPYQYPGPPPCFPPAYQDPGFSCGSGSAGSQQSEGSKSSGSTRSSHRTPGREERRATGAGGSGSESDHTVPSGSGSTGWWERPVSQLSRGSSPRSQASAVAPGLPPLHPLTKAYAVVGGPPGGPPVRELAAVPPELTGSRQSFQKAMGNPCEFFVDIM
B5: E3 ubiquitin-protein ligase SMURF2 (Mus musculus), A2A5Z6 (parent)
chain: B1 chain
partner: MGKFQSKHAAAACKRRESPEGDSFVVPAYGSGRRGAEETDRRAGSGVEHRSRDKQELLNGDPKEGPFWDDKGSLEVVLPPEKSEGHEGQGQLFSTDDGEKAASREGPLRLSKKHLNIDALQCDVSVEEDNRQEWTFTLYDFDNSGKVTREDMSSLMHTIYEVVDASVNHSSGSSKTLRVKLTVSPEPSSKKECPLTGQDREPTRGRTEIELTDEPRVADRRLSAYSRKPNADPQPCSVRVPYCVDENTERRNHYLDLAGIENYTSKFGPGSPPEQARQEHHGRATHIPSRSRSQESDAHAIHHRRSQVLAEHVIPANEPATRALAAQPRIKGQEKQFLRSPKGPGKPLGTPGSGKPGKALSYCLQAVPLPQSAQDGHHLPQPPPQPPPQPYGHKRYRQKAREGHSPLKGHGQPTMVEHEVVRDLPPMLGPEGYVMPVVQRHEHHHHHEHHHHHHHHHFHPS
B6: E3 ubiquitin-protein ligase SMURF2 (Mus musculus), A2A5Z6 (parent)
chain: B1 chain
partner: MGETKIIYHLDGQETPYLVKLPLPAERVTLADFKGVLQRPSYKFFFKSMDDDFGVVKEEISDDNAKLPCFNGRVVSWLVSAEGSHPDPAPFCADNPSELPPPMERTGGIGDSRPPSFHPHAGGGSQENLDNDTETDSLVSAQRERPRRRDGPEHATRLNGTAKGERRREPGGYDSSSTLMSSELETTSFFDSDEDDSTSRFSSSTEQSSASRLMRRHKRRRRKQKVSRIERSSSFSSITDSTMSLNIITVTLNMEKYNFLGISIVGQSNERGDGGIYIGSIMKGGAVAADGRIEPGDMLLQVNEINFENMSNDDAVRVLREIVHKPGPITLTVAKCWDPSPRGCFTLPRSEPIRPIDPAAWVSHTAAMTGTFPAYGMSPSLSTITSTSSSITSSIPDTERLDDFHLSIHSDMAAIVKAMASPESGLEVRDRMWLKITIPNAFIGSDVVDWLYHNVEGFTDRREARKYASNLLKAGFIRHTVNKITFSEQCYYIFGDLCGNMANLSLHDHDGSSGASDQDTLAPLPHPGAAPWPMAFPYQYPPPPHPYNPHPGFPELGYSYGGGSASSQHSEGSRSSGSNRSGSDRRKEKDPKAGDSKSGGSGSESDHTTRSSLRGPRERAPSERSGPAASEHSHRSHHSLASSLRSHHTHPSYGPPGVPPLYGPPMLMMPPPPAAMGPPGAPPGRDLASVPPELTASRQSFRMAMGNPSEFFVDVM
B7: Segment polarity protein dishevelled homolog DVL-2 (Homo sapiens), O14641 (parent)
chain: B3 partner

Variants of: B1
Settings: with ppm1b_human PPM1B

| Variant | effect of a mutation on the interaction |
| --- | --- |
| C716A | decreasing interaction |

Variants of: B2
Settings: with elav1_human ELAVL1, Q15717
Chain of elav1_human ELAVL1, Q15717 (Q15717 whole entry): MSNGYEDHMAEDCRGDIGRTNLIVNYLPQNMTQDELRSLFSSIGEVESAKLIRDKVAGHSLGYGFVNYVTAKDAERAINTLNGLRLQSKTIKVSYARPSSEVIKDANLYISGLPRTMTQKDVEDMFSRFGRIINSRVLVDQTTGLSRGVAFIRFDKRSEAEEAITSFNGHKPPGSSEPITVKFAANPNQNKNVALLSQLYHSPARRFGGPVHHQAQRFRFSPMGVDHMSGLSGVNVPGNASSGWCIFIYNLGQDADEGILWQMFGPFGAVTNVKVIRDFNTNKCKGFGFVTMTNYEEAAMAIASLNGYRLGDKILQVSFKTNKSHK

| Variant | effect of a mutation on the interaction |
| --- | --- |
| C716A | decreasing interaction |

Variants of: B2
Settings: with rac1_mouse Rac1, P63001

| Variant | effect of a mutation on the interaction |
| --- | --- |
| C716A | decreasing interaction |

Variants of: B2
Settings: with tp53b_mouse Tp53bp1, P70399
Chain of tp53b_mouse Tp53bp1, P70399 (P70399 whole entry): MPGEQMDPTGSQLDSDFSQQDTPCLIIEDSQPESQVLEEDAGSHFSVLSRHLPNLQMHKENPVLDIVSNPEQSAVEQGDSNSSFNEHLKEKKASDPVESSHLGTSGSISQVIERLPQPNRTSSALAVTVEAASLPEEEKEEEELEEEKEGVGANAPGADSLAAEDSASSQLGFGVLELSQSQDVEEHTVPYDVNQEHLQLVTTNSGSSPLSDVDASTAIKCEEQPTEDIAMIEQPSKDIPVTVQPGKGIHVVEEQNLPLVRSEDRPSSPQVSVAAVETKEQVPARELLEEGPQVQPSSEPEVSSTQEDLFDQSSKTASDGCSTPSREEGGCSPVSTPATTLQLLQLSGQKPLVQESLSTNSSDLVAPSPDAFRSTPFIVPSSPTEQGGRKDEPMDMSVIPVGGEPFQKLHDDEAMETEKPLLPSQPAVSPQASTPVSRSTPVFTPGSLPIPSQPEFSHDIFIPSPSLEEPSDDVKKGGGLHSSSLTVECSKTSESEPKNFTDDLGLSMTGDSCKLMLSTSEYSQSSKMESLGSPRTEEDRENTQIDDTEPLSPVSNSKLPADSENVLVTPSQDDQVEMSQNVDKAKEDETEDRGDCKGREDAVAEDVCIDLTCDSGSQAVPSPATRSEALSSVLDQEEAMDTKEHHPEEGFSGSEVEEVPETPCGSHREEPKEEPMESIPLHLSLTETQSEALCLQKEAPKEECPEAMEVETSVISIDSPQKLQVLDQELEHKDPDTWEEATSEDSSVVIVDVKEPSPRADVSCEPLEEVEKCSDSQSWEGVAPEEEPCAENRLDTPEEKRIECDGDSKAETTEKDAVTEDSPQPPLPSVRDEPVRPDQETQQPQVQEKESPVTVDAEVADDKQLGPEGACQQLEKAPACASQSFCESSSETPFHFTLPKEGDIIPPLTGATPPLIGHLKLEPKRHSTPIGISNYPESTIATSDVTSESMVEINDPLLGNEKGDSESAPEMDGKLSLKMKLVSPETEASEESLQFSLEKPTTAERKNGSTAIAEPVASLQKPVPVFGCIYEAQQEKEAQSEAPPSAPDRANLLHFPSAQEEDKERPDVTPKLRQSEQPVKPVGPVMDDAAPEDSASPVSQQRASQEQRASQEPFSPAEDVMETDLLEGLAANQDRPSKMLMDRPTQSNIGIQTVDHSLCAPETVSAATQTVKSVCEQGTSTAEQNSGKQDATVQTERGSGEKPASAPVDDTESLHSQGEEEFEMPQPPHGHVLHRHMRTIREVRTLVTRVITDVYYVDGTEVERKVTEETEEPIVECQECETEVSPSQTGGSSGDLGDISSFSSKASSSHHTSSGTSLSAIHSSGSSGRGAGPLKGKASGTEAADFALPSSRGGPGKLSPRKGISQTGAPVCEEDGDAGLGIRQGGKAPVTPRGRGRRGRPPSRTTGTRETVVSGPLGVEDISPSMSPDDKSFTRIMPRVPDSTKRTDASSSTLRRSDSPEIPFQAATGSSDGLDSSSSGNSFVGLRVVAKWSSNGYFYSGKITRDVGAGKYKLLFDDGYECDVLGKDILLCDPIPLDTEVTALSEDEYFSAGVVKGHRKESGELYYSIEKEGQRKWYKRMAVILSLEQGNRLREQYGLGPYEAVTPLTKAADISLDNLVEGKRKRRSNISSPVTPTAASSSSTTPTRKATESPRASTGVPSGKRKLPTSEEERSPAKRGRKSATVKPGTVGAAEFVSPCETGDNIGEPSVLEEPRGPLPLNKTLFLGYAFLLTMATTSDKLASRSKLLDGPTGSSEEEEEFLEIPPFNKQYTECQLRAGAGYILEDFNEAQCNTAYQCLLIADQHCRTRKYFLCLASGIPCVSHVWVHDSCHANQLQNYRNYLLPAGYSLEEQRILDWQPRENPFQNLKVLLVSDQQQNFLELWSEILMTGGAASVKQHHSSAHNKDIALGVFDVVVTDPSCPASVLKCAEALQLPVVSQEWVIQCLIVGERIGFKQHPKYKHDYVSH

| Variant | effect of a mutation on the interaction |
| --- | --- |
| C716A | decreasing interaction |

Variants of: B3
Settings: with dvl2_human DVL2, O14641

| Variant | effect of a mutation on the interaction |
| --- | --- |
| C716A | decreasing interaction |

Variants of: B4
Settings: with dvl1_mouse Dvl1, P51141

| Variant | effect of a mutation on the interaction |
| --- | --- |
| C716A | decreasing interaction |

Variants of: B5
Settings: with nkd2_mouse Nkd2, Q8VE28

| Variant | effect of a mutation on the interaction |
| --- | --- |
| C716A | decreasing interaction |

Variants of: B6
Settings: with dvl3_human DVL3, Q92997

| Variant | effect of a mutation on the interaction |
| --- | --- |
| C716A | decreasing interaction |

Variants of: B7
Settings: with smuf2_mouse Smurf2, A2A5Z6

| Variant | effect of a mutation on the interaction |
| --- | --- |
| E499G | decreasing interaction |

Variants of: B7
Settings: with smuf2_mouse Smurf2, A2A5Z6
Remark: another data set of the same source

| Variant | effect of a mutation on the interaction |
| --- | --- |
| C501R | decreasing interaction |
